The nature of series [1]: folding stability dG unfold from trypsin proteolysis; higher = more stable. As to the method:
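Folding stability of de novo designed mini-proteins (<80 aa, no Cys; designed by TrROS, TrMRF, ProteinMPNN and the joint model) was measured by cDNA display proteolysis with trypsin and chymotrypsin. Each protease was used at 11 concentrations in a threefold dilution series plus a no-protease condition. K50 was inferred by Bayesian fitting of sequencing counts, and dG unfold was derived against a sequence-predicted unfolded-state K50 (Tsuboyama et al. method). Sequences shown include variable-length N-terminal GS-type padding (SAGGSAGG...) inside a display construct carrying a PA tag. Rows were kept only if the AF2 dimer inter-PAE was >15, to exclude likely homo-oligomers.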

Series [2] can be described thus: folding stability dG unfold from chymotrypsin proteolysis; higher = more stable. Summed up:
(§1)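 Digests were run with trypsin and chymotrypsin at 11 concentrations in threefold dilutions, plus a no-protease condition, on designed mini-proteins in a PA-tagged cDNA display construct. The mini-proteins were under 80 residues, had no cysteine, and were kept only when AlphaFold2 dimer inter-PAE was above 15. After sequencing, Bayesian fitting of the counts gave K50, from which unfolding free energy was derived against a sequence-predicted unfolded-state K50 and a shared folded-state K50, per protease or combined.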

A short description of series [3]: folding stability dG unfold (combined trypsin and chymotrypsin); higher = more stable. The gist of the method:
as §1

± gives the half width of the 95% confidence interval.

Take “SAGGEVKFEKNEDGTITVTVKAESEEEALEALKKLLEEQGFEIEEIKVERLPNGEVKITIKIKPKKPSAGGS [r8_253_TrROS_Hall]”: the “folding stability dG unfold” value in series [1] is 3.65 ± 0.4 kcal/mol.

With “SAGGSAGGSAGGKAVFLKTKTVTRTVTRKTTKNGKEEEVATETVTTVELVEVDLDNGEASAGGSAGGSAGGS [r10_93_TrROS_Hall]”, in series [1], the “folding stability dG unfold” value was -0.708 ± 0.37 kcal/mol.

For “SAGGSAGGSAGGKVTVEKDKETGKYTVKIVNKKTKKEITVTVPAKDKEKALKKAKELAKSAGGSAGGSAGGS [r10_1117_TrROS_Hall]”, in series [1], the “folding stability dG unfold” value was -0.349 ± 0.35 kcal/mol.

Take “SAGGSAGGSAGGMVLKTETRPGFEGGRAWTVTTTVYPDSVVVTTTPPDGVPTTTTIPPSSSAGGSAGGSAGG [r7_516_JUSTAS]”: in series [1], the “folding stability dG unfold” value is -0.221 ± 0.24 kcal/mol.

For the sequence “SAGGSAGGSAGKRKIIFQVDNPEDMLDEIKIPPGGEVKIENIEIQPQPNGRHWAVFEIKDSAGGSAGGSAGG [r11_150_TrROS]”, in series [1], the “folding stability dG unfold” value is -0.398 ± 0.4 kcal/mol.

“SAGGSAGGSAGKTIPIDEEEAKALFKAGNPRTITRLLPDGKTETLTYQPETNEVSVLDPKAPSAGGSAGGSA [r18_400_JUSTAS]”: in series [1], the “folding stability dG unfold” value was -0.795 ± 0.61 kcal/mol.

Consider “SAGSMKTEEKTEEVPPVTLPFGPSVRVRRVTTTITDPSTGKIKEVTVELFDPAGRRRVDPVKKVPVELLSAG [r14_631_JUSTAS]”, for which, in series [1], the “folding stability dG unfold” value came out at 0.794 ± 0.13 kcal/mol.

In the case of “SKTVVIAADPNNPEAIKKAIEEAPPDTTIVIVVPLENGEYPKVTITRKPPEVPPIPPELLSEEEIKELLPSA [r9_1103_TrMRF]”, the “folding stability dG unfold” value in series [2] turned out to be 0.836 ± 0.053 kcal/mol; in series [3] it was 0.42 ± 0.14 kcal/mol.

“SMTIKELLKAHPGQPVEDLAKRIMDEMNANFPNGMPIKINLEYDPGGIKVDVEMWNNDKPQTDEFTIRPDSA [r9_805_TrROS]”: the “folding stability dG unfold” value in series [2] was 0.327 ± 0.091 kcal/mol; in series [3] it was -0.000922 ± 0.15 kcal/mol.

Regarding “SMTLVGTTTLPNATVTTYKNETKYIVLTYDPVEAGEPAAVSYVEKYEGNKVVKKKKVAPEEIEKAIEELLSA [r9_57_JUSTAS]”, the “folding stability dG unfold” value in series [2] is 0.609 ± 0.32 kcal/mol; in series [3], 0.247 ± 0.48 kcal/mol.

As to “SMYVFSTGSKPSSEQLLEKLEKVPNLPKELIKKNTIISDTESSPEIVIPKEVYDKIKKENPEAVKVIESGSA [r9_160_JUSTAS]”, the “folding stability dG unfold” value in series [2] is -0.991 ± 0.56 kcal/mol; in series [3], less than -1 kcal/mol.

With “SPAPPMRIDNIKPEKEDPNGDERKYRVYWQGPNGRPYHYEGPLEELEDMLDEDNIDPDNFWPGDEITIKVSA [r9_1078_TrROS]”, the “folding stability dG unfold” value in series [2] is 0.869 ± 0.12 kcal/mol; in series [3], 0.421 ± 0.31 kcal/mol.

“SPVAVVTYEDGSVSEVPFTHPDGRAYDLSRGPGDVATLTVTRLLPDGSLEPLPTVPFTSEAEAEAYLAAASA [r9_942_JUSTAS]”: the figures for the “folding stability dG unfold” value in series [2] and in series [3] were 0.201 ± 0.12 kcal/mol and -0.231 ± 0.074 kcal/mol, respectively.

As for “SSSSLLKSSTEEVEVSTTFTKTSPDGSLTPVGTTTEVVTKTVKTVPKEILEKLKKEKEKPLPPEGNLGYLSA [r9_1192_JUSTAS]”, the “folding stability dG unfold” value in series [2] is 0.495 ± 0.36 kcal/mol; in series [3] it was 0.000763 ± 0.41 kcal/mol.

Turning to “SSTPKLEEIERPNARFKVTTYTYPNSVKTTADATFPDGTKGKIEETYTPTPEGVKKTVKKDLPPEVKEKLES [r1_153_JUSTAS]”, the “folding stability dG unfold” value was 0.0664 ± 0.46 kcal/mol in series [2] and less than -1 kcal/mol in series [3].

For “SSTSMSTEPNRTVTTTTEKGGRSTVTTTTTTTFTASGETTTTTPVTTTTPPPPLGVYKDPAGVTRTRPLLSA [r9_456_JUSTAS]”, the “folding stability dG unfold” value in series [2] is 0.339 ± 0.079 kcal/mol; in series [3], -0.012 ± 0.072 kcal/mol.

With “STRTVPIPIRWDNGRLSPDDIRNAIKKALPPGENVKITEETIQNFWQEWAGKNGKPMTPEDFPIRIEVKKSA [r9_197_TrROS]”, the “folding stability dG unfold” value in series [2] is 0.0542 ± 0.36 kcal/mol; in series [3] it was -0.198 ± 0.27 kcal/mol.

As for “TIKELAKKLGGPITVETEQYPIENPDGNPYYITDIEVQVNPNDGSLRINYEVYNPGNGKKQEEEDTIPLDDS [r1_448_TrROS]”, the “folding stability dG unfold” value in series [2] was -0.708 ± 0.42 kcal/mol; in series [3], less than -1 kcal/mol.

Regarding “TLSPEEIEAEARARAEAAVAARPDSAADVELDVPVEFPVRTERRDPRSDRWSRSLSTVRLRLRLRLARGAGS [r1_90_JUSTAS]”, the “folding stability dG unfold” value was 0.343 ± 0.2 kcal/mol in series [2] and -0.468 ± 0.24 kcal/mol in series [3].
